Experimental findings from patent publication US20230077716A1 are described below.

This assay has as its target NA of B/New York/PV00094/17 (Y), on purified virus (Influenza B virus B/New York/PV00094/17).

B1: 2H09 monoclonal antibody (BNA-mAb) (antibody, V domains shown)
VH: EVQLVESGGGLVQPGGSLRLSCAASGVTLDNYWVHWVRQVPGKGLVWVSRINADGTSKTYADSVKGRFTISRDTTRNTLFLQMNSLRGDDTALYFCARGGLYSSDAFDVWGQGTMVTVSS
VL: QSALTQPPSASGSPGQSVTISCTGTSWDVGRYNHVSWYQHHPGKAHKLIIYEVNRRPSGVPDRFSGSKSANTASLTVSGLQAEDEADYYCSSYTGNNVAVFGGGTKLTVL
B1 returned a percent competition of 90%.

B2: 3C01 monoclonal antibody (BNA-mAb) (antibody, V domains shown)
VH: EVQLVESGGGLVQPGGSLRLSCAASGFPFSHYYMHWVRRAPGKGLVWVSRIYSDGTSSSYGDSVKGRFTISRDNAKNILYLQMNSLRAEDSATYYCCRGGYYSLDGFDFWGQGTMVTVSS
VL: DIQMTQSPLSLSVSEGDRVTITCRASQGIGNDLGWYQLKPGKAPKRLIYGASSLQSGVPSRFSGSGSGTEFTLTISSLQPEDFATYFCLQHSSFPYTFGQGTKVEIK
B2 came in with a percent competition of 90%.
